Experimental data from patent US20150246136A1 (Bayer, published 2015).
Values joined by “and” are separate entries in the source; they are usually repeats but may differ in a detail not shown here. Equal values may be shown once.

What was measured:
Assay in all cases: cell-based or functional assay
Carboanhydrase IX [1] = target: T1, Carboanhydrase IX (Homo sapiens, UniProt Q16790 38-459)
Carboanhydrase IX [2] = target: T1, Carboanhydrase IX; remark: listed apart in the source
[3] = target: Mesothelin (SwissProt reference Q13421-3) (Homo sapiens, UniProt Q13421 37-622)

B1: Example 280 (antibody, human IgG1, kappa, V domains shown)
VH: QVELVESGGGLVQPGGSLRLSCAASGFTFSSYGMSWVRQAPGKGLEWVSGISSLGSTTYYADSVKGRFTISRDNSKNTLYLQMNSLRAEDTAVYYCARTGSPGTFMHGDHWGQGTLVTVSS
VL: DIQMTQSPSSLSASVGDRVTITCRASQDINNYLSWYQQKPGKAPKLLIYGASNLQSGVPSRFSGSGSGTDFTLTISSLQPEDFAVYYCQQYYGRPTTFGQGTKVEIKR
modifications: linker-toxophore on cysteine S
Carboanhydrase IX [1]
  MIAPaCa 2/CA9+ IC50: 0.4 nM
Carboanhydrase IX [2]
  EC50 (nM) HT29: 2.9 nM

B2: Example 283 (antibody, human IgG1, kappa, V domains shown)
VH: B1 VH
VL: B1 VL
modifications: linker-toxophore on cysteine S
Carboanhydrase IX [1]
  MIAPaCa 2/CA9+ IC50: 0.4 nM
Carboanhydrase IX [2]
  EC50 (nM) HT29: 0.3 nM

B3: Example 324 (antibody, human IgG1, kappa, V domains shown)
VH: B1 VH
VL: B1 VL
modifications: linker-toxophore on cysteine S
Carboanhydrase IX [1]
  MIAPaCa 2/CA9+ IC50: 11 nM

B4: Example 281 (antibody, human IgG1, kappa, V domains shown)
VH: B1 VH
VL: B1 VL
modifications: linker-toxophore on cysteine S
Carboanhydrase IX [1]
  MIAPaCa 2/CA9+ IC50: 1.2 nM
Carboanhydrase IX [2]
  EC50 (nM) HT29: 1.7 nM

B5: Example 285 (antibody, human IgG1, kappa, V domains shown)
VH: B1 VH
VL: B1 VL
modifications: linker-toxophore on cysteine S
Carboanhydrase IX [1]
  MIAPaCa 2/CA9+ IC50: 0.6 nM
Carboanhydrase IX [2]
  EC50 (nM) HT29: 0.5 nM

B6: Example 323 (antibody, human IgG1, kappa, V domains shown)
VH: B1 VH
VL: B1 VL
modifications: linker-toxophore on lysine NH
Carboanhydrase IX [1]
  MIAPaCa 2/CA9+ IC50: 238 nM

B7: Example 326 (antibody, human IgG1, kappa, V domains shown)
VH: B1 VH
VL: B1 VL
modifications: linker-toxophore on lysine NH
Carboanhydrase IX [1]
  MIAPaCa 2/CA9+ IC50: 2 nM

B8: Example 282 (antibody, human IgG1, kappa, V domains shown)
VH: B1 VH
VL: B1 VL
modifications: linker-toxophore on cysteine S
Carboanhydrase IX [1]
  MIAPaCa 2/CA9+ IC50: 0.05 nM
Carboanhydrase IX [2]
  EC50 (nM) HT29: < 0.01 nM

B9: Example 321 (antibody, human IgG1, kappa, V domains shown)
VH: B1 VH
VL: B1 VL
modifications: linker-toxophore on cysteine S
Carboanhydrase IX [1]
  MIAPaCa 2/CA9+ IC50: 220 nM

B10: Example 327 (antibody, human IgG1, kappa, V domains shown)
VH: B1 VH
VL: B1 VL
modifications: linker-toxophore on cysteine S
Carboanhydrase IX [1]
  MIAPaCa 2/CA9+ IC50: 19 nM

B11: Example 294 (antibody, human IgG1, kappa, V domains shown)
VH: B1 VH
VL: B1 VL
modifications: linker-toxophore on cysteine S
Carboanhydrase IX [1]
  MIAPaCa 2/CA9+ IC50: 1 nM
Carboanhydrase IX [2]
  EC50 (nM) HT29: 13.6 nM
  EC50 (nM) SNU-5: 21.4 nM

B12: Example 293 (antibody, human IgG1, kappa, V domains shown)
VH: B1 VH
VL: B1 VL
modifications: linker-toxophore on cysteine S
Carboanhydrase IX [1]
  MIAPaCa 2/CA9+ IC50: < 0.1 nM
Carboanhydrase IX [2]
  EC50 (nM) HT29: 0.1 nM

B13: Example 290 (antibody, human IgG1, kappa, V domains shown)
VH: B1 VH
VL: B1 VL
modifications: linker-toxophore on lysine NH
Carboanhydrase IX [1]
  MIAPaCa 2/CA9+ IC50: 1.9 nM
Carboanhydrase IX [2]
  EC50 (nM) HT29: 115 nM
  EC50 (nM) SNU-5: 84 nM

B14: Example 295 (antibody, human IgG1, kappa, V domains shown)
VH: B1 VH
VL: B1 VL
modifications: linker-toxophore on cysteine S
Carboanhydrase IX [1]
  MIAPaCa 2/CA9+ IC50: 25 nM
Carboanhydrase IX [2]
  EC50 (nM) HT29: > 100 nM
  EC50 (nM) SNU-5: 63 nM

B15: Example 287 (antibody, human IgG1, kappa, V domains shown)
VH: B1 VH
VL: B1 VL
modifications: linker-toxophore on cysteine S
Carboanhydrase IX [1]
  MIAPaCa 2/CA9+ IC50: 69 nM
Carboanhydrase IX [2]
  EC50 (nM) HT29: > 30 nM

B16: Example 297 (antibody, human IgG1, kappa, V domains shown)
VH: B1 VH
VL: B1 VL
modifications: linker-toxophore on cysteine S
Carboanhydrase IX [1]
  MIAPaCa 2/CA9+ IC50: 0.02 nM
Carboanhydrase IX [2]
  EC50 (nM) HT29: < 0.01 nM

B17: Example 296 (antibody, human IgG1, kappa, V domains shown)
VH: B1 VH
VL: B1 VL
modifications: linker-toxophore on cysteine S
Carboanhydrase IX [1]
  MIAPaCa 2/CA9+ IC50: 0.6 nM
Carboanhydrase IX [2]
  EC50 (nM) HT29: 0.4 nM

B18: Example 286 (antibody, human IgG1, kappa, V domains shown)
VH: B1 VH
VL: B1 VL
modifications: linker-toxophore on cysteine S
Carboanhydrase IX [1]
  MIAPaCa 2/CA9+ IC50: 0.8 nM
Carboanhydrase IX [2]
  EC50 (nM) HT29: 0.03 nM

B19: Example 314 (antibody, human IgG1, kappa, V domains shown)
VH: B1 VH
VL: B1 VL
modifications: linker-toxophore on lysine NH
Carboanhydrase IX [1]
  MIAPaCa 2/CA9+ IC50: 150 nM

B20: Example 320 (antibody, human IgG1, kappa, V domains shown)
VH: B1 VH
VL: B1 VL
modifications: linker-toxophore on cysteine S
Carboanhydrase IX [1]
  MIAPaCa 2/CA9+ IC50: 19 nM

B21: Example 322 (antibody, human IgG1, kappa, V domains shown)
VH: B1 VH
VL: B1 VL
modifications: linker-toxophore on lysine NH
Carboanhydrase IX [1]
  MIAPaCa 2/CA9+ IC50: 172 nM

B22: Example 288 (antibody, human IgG1, kappa, V domains shown)
VH: B1 VH
VL: B1 VL
modifications: linker-toxophore on cysteine S
Carboanhydrase IX [1]
  MIAPaCa 2/CA9+ IC50: 12 nM
Carboanhydrase IX [2]
  EC50 (nM) HT29: 39 nM

B23: Example 315 (antibody, human IgG1, kappa, V domains shown)
VH: B1 VH
VL: B1 VL
modifications: linker-toxophore on cysteine S
Carboanhydrase IX [1]
  MIAPaCa 2/CA9+ IC50: 3.2 nM

B24: Example 284 (antibody, human IgG1, kappa, V domains shown)
VH: B1 VH
VL: B1 VL
modifications: linker-toxophore on cysteine S
Carboanhydrase IX [1]
  MIAPaCa 2/CA9+ IC50: 0.9 nM
Carboanhydrase IX [2]
  EC50 (nM) HT29: 0.7 nM and 1.6 nM
  EC50 (nM) SNU-5: 3 nM and 2.2 nM

B25: Example 298 (antibody, human IgG1, kappa, V domains shown)
VH: B1 VH
VL: B1 VL
modifications: linker-toxophore on cysteine S
Carboanhydrase IX [1]
  MIAPaCa 2/CA9+ IC50: 1.1 nM
Carboanhydrase IX [2]
  EC50 (nM) HT29: 2.5 nM
  EC50 (nM) SNU-5: 7.8 nM

B26: Example 291 (antibody, human IgG1, kappa, V domains shown)
VH: B1 VH
VL: B1 VL
modifications: linker-toxophore on cysteine S
Carboanhydrase IX [1]
  MIAPaCa 2/CA9+ IC50: 22 nM
Carboanhydrase IX [2]
  EC50 (nM) HT29: 27 nM

B27: Example 325 (antibody, human IgG1, kappa, V domains shown)
VH: B1 VH
VL: B1 VL
modifications: linker-toxophore on cysteine S
Carboanhydrase IX [1]
  MIAPaCa 2/CA9+ IC50: 137 nM

B28: Example 292 (antibody, human IgG1, kappa, V domains shown)
VH: B1 VH
VL: B1 VL
modifications: linker-toxophore on cysteine S
Carboanhydrase IX [1]
  MIAPaCa 2/CA9+ IC50: 35 nM
Carboanhydrase IX [2]
  EC50 (nM) HT29: 223 nM

B29: Example 289 (antibody, human IgG1, kappa, V domains shown)
VH: B1 VH
VL: B1 VL
modifications: linker-toxophore on cysteine S
Carboanhydrase IX [1]
  MIAPaCa 2/CA9+ IC50: 78 nM
Carboanhydrase IX [2]
  EC50 (nM) HT29: 49 nM

B30: Example 313 (antibody, human IgG1, kappa, V domains shown)
VH: B1 VH
VL: B1 VL
modifications: linker-toxophore on cysteine S
Carboanhydrase IX [1]
  MIAPaCa 2/CA9+ IC50: 3.8 nM

B31: Example 157, conjugate of anti-mesothelin antibody MF-Ta (antibody, human IgG1, lambda, V domains shown)
VH: QVELVQSGAEVKKPGESLKISCKGSGYSFTSYWIGWVRQAPGKGLEWMGIIDPGDSRTRYSPSFQGQVTISADKSISTAYLQWSSLKASDTAMYYCARGQLYGGTYMDGWGQGTLVTVSS
VL: DIALTQPASVSGSPGQSITISCTGTSSDIGGYNSVSWYQQHPGKAPKLMIYGVNNRPSGVSNRFSGSKSGNTASLTISGLQAEDEADYYCSSYDIESATPVFGGGTKLTVLG
modifications: toxophore-linker, coupling residue not stated
[3]
  IC50 (nM), HT29 meso+ cells, MTT proliferation assay: 0.09 nM

B32: Example 366, conjugate of anti-mesothelin antibody MF-Ta (antibody, human IgG1, lambda, V domains shown)
VH: B31 VH
VL: B31 VL
modifications: toxophore-linker on Cys sulfur, sites not given
[3]
  IC50 (nM), HT29 meso+ cells, MTT proliferation assay: 1.3 nM

B33: Example 379 (Diastereomer 1), conjugate of anti-mesothelin antibody MF-Ta (antibody, human IgG1, lambda, V domains shown)
VH: B31 VH
VL: B31 VL
modifications: toxophore-linker on Lys NH, sites not given
[3]
  IC50 (nM), HT29 meso+ cells, MTT proliferation assay: 7 nM

B34: Example 158, conjugate of anti-mesothelin antibody MF-Ta (antibody, human IgG1, lambda, V domains shown)
VH: B31 VH
VL: B31 VL
modifications: toxophore-linker, coupling residue not stated
[3]
  IC50 (nM), HT29 meso+ cells, MTT proliferation assay: 0.18 nM

B35: Example 378, conjugate of anti-mesothelin antibody MF-Ta (antibody, human IgG1, lambda, V domains shown)
VH: B31 VH
VL: B31 VL
modifications: toxophore-linker on Lys NH, sites not given
[3]
  IC50 (nM), HT29 meso+ cells, MTT proliferation assay: 0.04 nM

B36: Example 368, conjugate of anti-mesothelin antibody MF-Ta (antibody, human IgG1, lambda, V domains shown)
VH: B31 VH
VL: B31 VL
modifications: toxophore-linker on Lys NH, sites not given
[3]
  IC50 (nM), HT29 meso+ cells, MTT proliferation assay: 3.1 nM

B37: Example 159, conjugate of anti-mesothelin antibody MF-Ta (antibody, human IgG1, lambda, V domains shown)
VH: B31 VH
VL: B31 VL
modifications: toxophore-linker, coupling residue not stated
[3]
  IC50 (nM), HT29 meso+ cells, MTT proliferation assay: 177 nM

B38: Example 367, conjugate of anti-mesothelin antibody MF-Ta (antibody, human IgG1, lambda, V domains shown)
VH: B31 VH
VL: B31 VL
modifications: toxophore-linker on Lys NH, sites not given
[3]
  IC50 (nM), HT29 meso+ cells, MTT proliferation assay: 0.06 nM

B39: Example 369, conjugate of anti-mesothelin antibody MF-Ta (antibody, human IgG1, lambda, V domains shown)
VH: B31 VH
VL: B31 VL
modifications: toxophore-linker on Lys NH, sites not given
[3]
  IC50 (nM), HT29 meso+ cells, MTT proliferation assay: 0.02 nM

B40: Example 380 (Diastereomer 2), conjugate of anti-mesothelin antibody MF-Ta (antibody, human IgG1, lambda, V domains shown)
VH: B31 VH
VL: B31 VL
modifications: toxophore-linker on Lys NH, sites not given
[3]
  IC50 (nM), HT29 meso+ cells, MTT proliferation assay: 15 nM

B41: Example 377, conjugate of anti-mesothelin antibody MF-Ta (antibody, human IgG1, lambda, V domains shown)
VH: B31 VH
VL: B31 VL
modifications: toxophore-linker on Cys sulfur, sites not given
[3]
  IC50 (nM), HT29 meso+ cells, MTT proliferation assay: 1.6 nM
